Substrate: CC(=O)Oc1ccc([N+](=O)[O-])cc1
Experiment: purified protein
Type: biochemical, Phocaeicola vulgatus
Settings: 10 nM enzyme, 100 mM phosphate-citrate buffer pH 7.0, 25 °C, 1% DMSO

B1: PvSAE (Phocaeicola vulgatus ATCC 8482) (protein)
chain: ERKYSTFYEQRATLFEELPVTSKDIIFLGNSITNGCEWAELFQNKNVKNRGISGDICMGVYDRLDPIVKGKPAKIFLLIGINDVSRGTSADKIISEISMIVRKIKQESPKTKLYLQSVLPVNDCYGMFNGHTSRWQVVKQINDLLEPLAVKEGVAYIDLYSHFVEKETGKMNPVYTNDGLHLLGKGYLLWRDIVKPYVDQK
notes: signal peptide removed (predicted cleavage 19/20); E. coli BL21(DE3) Gold
- Km: 80 ± 6 µM
- kcat: 75 ± 1 s⁻¹
- kcat/Km: 930000 ± 70000 M⁻¹ s⁻¹
